For data set [1], the system named is OVCAR3 xenograft. Briefly: 177Lu FOLR1 radioligand therapy of OVCAR3 xenografts. It counts as in vivo, mouse. The conditions noted are these: for tumor response: single dose at 18.5 MBq/nmol, tumor size (avg.) 148 mm^3. The method, then: Water and food were provided ad libitum. […] Tumor growth was monitored by caliper measurements.
OVCAR3 tumor bearing mice were used to study FOLR1-directed radioligand therapy (RLT) for treatment of ovarian cancer. Animals were administered a single dose of heterobiligand (vehicle control) or 111, 37, 18.5, 9.25, or 3.7 MBq [^177Lu]DOTA-labeled heterobiligand. Mice received the dose intravenously (i.v.) via the tail vein. To monitor the effect of the RLT, tumor size measurements were taken twice weekly and body weights were measured.
Single dose treatments at 18.5 MBq/nmol specific activity. OVCAR3 mouse model was used. 10^7 cell tumors were implanted in the mice one month before administration of ^177Lu-#6305. Five mice each were administered Cold #6305, 9.25 MBq Lu177-#6305, and 14.8 MBq Lu177-#6305, and two mice were administered 29.6 MBq Lu177-#6305. Tumor growth and body weight were then monitored.
Female NSG mice were implanted subcutaneously with OVCAR3 cells. Once tumors reached volumes of 200 mm^3, the animals were treated with 177-Lu 7327. Three treatment arms of 9.25 MBq, 14.8 MBq, and 29.6 MBq were studied.

A short description of data set [2]: Gamma counting of tissue radioactivity. It counts as in vivo, mouse. The conditions noted are these: for kidney radioactivity / liver radioactivity / tumor radioactivity: Day 28 post-injection. The text has this:
7 days after Lu177-#6305 injection, the 29.6 MBq group lost 20% body weight. These mice were sacrificed. Tissues and plasma were collected for evaluation of radioactivity by gamma counting. The toxicity may have resulted from its accumulation in the kidneys and liver (FIG. 28). At study endpoint (Day 28 post-injection), plasma, tumors, kidneys, lungs, hearts, livers, and muscles from 9.25 MBq and 14.8 MBq treatment groups were collected for evaluation of radioactivity by gamma counting (FIG. 29).

Data set [3] has as its system OVCAR3 xenograft. Kind of data set: 177Lu FOLR1 radioligand therapy of OVCAR3 xenografts. It counts as in vivo, mouse. The conditions noted are these: single dose.
Data set [4] is described as follows: Maximum tolerated dose (MTD) tolerability study.
Method: In order to establish a maximum tolerated dose (MTD), a tolerability study was undertaken testing increasing amounts of the 177-Lu heterobiligand 7327 (folate-hshta-Gly-Phe-Lys(DOTA)). Animals were monitored for signs of toxicity and weighed twice weekly. […] The second and third doses were administered 21 days following the previous dose.
Efforts were undertaken to evaluate 177-Lu 6305 (folate-hshta-Lys(MPBA)-Gly-Phe-Lys(DOTA)), a compound with a brush border cleavable linker in addition to an albumin binder. […] Two separate MTD experiments were undertaken. […] A second experiment interrogated lower doses.
In order to establish a MTD, dose range finding studies were undertaken testing increasing amounts of Indi ^177Lu-7327 in healthy, non-tumor bearing female NSG mice using IV administration (FIGS. 34 and 35). Mouse body weight and behavior were monitored. […] The second and third doses were administered 21 days following the previous dose.
Data set [5] is described as follows: Plasma protein binding, human plasma. Format: in vitro ADME. The settings on record: for recovery / fraction unbound: human plasma; for fraction unbound: read-out: Plasma % Bound, Hu (converted). On the procedure: (§1) HTD 96 a/b regenerated cellulose membrane strips with mass cutoff of 12-14 kDa were soaked in ultra-pure water at room temperature for 1 hour. Each swelled membrane was then soaked in 20:80 ethanol:water for 20 minutes.
(§2) Just prior to the experiment, the membranes were re-soaked in ultra-pure water. Plasma was prepared by thawing under cold water. The plasma was centrifuged to remove any clots and pH was adjusted to 7.0-8.0. Test articles and control compounds were diluted to 2 μM. The dialysis device was loaded by transferring 150 μL of the test article (in triplicate) to the donor side. The dialysis device was placed in a humidified incubator at 37° C. with 5% CO2 in a shaking platform that rotated slowly for 4 hours. After incubation, 50 μL of the supernatant was taken from both sides and analyzed by LC-MS/MS.

A short description of data set [6]: Plasma protein binding, CD-1 mouse plasma. Format: in vitro ADME. The conditions noted are these: for fraction unbound / recovery: CD-1 mouse plasma; for fraction unbound: read-out: Plasma % Bound, Mu (converted). The method, then:
as §1, §2

For another data set, the target named is human recombinant NEP (Homo sapiens, UniProt P08473). Kind of data set: NEP enzymatic cleavage assay (MALDI, HPLC). Format: biochemical. The method, then:
In order to test the susceptibility of GFK and MVK linkers to NEP-mediated cleavage, the peptide (Folate-hshta-Lys(MPBA)-Gly-Phe-Lys(DOTA) (SEQ ID NO:6)) was incubated with human recombinant NEP and analyzed the solution for the presence of cleaved adducts. MALDI was utilized to monitor the cleavage of a PCC heterobiligand that contains a NEP protease recognizable sequence (G-F-K). The PCC concentration was constant and the NEP concentration was titrated down from 10 nM to 1 nM, 0.1 nM, 0.01 nM, and no NEP. The NEP-mediated cleaved adduct was identified by mass. 10 μM PCC containing the GFK linker was combined with varying amounts of NEP. […] Below 0.1 nM no cleavage was observed. • Folate-hshta-Lys(MPBA)-Gly-Phe-Lys(DOTA) (SEQ ID NO:6) • Molecular weight 2231.42
The NEP-mediated cleavage was also monitored by HPLC. In agreement with the MALDI spectra, the HPLC chromatograms show depletion of the parent brush-border heterobiligand (retention time 17.1 minutes), dose-dependent on the amount of NEP spiked into the sample (10 nM, 1 nM, 0.1 nM, 0.01 nM, and no NEP). An appearance of a new peak (retention time 16.5 minutes) in concert with the depletion of the starting material is presumed to be the cleaved folate-containing peptide.
In order to test the specificity of NEP, a non-cleavable linker (PEG3) was also assayed.
To reduce the radioactive dose to the kidney, Indi ^177Lu-7327 was constructed to incorporate a GFK linker that is susceptible to cleavage by enzymes found predominately in the kidney's brush border. These enzymes cleave off the radionuclide-chelator complex, which is quickly eliminated by the kidney for excretion in the urine. The zinc metalloprotease neprilysin (NEP) is expressed with high abundance in the kidney. […] To confirm NEP-mediated cleavage of the GFK linker in Indi 7327, the peptide was incubated with recombinant human NEP at 37° C. for 1 h and analyzed by matrix-assisted laser desorption/ionization mass spectrometry (MALDI-MS) for the evolution of cleaved adducts (FIG. 42). […] The expected cleaved adduct (mass: 1283.16 m/z) appears in the samples containing 10, 1.0, and 0.1 nM NEP. […] Below 0.1 nM NEP, no cleavage was observed. In addition to confirming the selectivity of NEP for the GFK linker, it is also important to note that the remaining portions of the Indi 7327 were impervious to the enzyme.

The mark [7] stands for this setting: 29.6 MBq group, Day 7 post-injection.
Setting [8] is: read-out: Plasma protein binding % Recovery, Hu.
[9] abbreviates: read-out: Plasma protein binding % Recovery, Mu.

Each structure is given as a SMILES string. Starred links: 1 amine or outer side, 2 acyl side, 3 side chain; linkers in the order of their positions; H or OH if unused. Positions of bridges follow the written chain, without caps; N, C: chain ends. Non-standard residues stand in square brackets, D forms with d. Residues, ends and D or L forms follow the SMILES beside them. Groups on a side chain read outwards from the residue. Triazole bridges read from a SMILES are 1,4-linked. *: point of attachment. DOTA = O=C(O)CN1CCN(CC(=O)O)CCN(CC(=O)*)CCN(CC(=O)O)CC1; Pteroyl = Nc1nc2ncc(CNc3ccc(C(=O)*)cc3)nc2c(=O)[nH]1; Butanoyl(4-(4-MePh)) = Cc1ccc(CCCC(=O)*)cc1; Lys(N3) = [N-]=[N+]=NCCCC[C@H](N)C(=O)O; γGlu = O=C(O)[C@H](CCC(=O)[*:2])N[*:1]; AEEEA = NCCOCCOCCOCC(=O)O; Pra = C#CC[C@H](N)C(=O)O; X1 = NOCC(=O)*

Sequence of human recombinant NEP (P08473 whole entry): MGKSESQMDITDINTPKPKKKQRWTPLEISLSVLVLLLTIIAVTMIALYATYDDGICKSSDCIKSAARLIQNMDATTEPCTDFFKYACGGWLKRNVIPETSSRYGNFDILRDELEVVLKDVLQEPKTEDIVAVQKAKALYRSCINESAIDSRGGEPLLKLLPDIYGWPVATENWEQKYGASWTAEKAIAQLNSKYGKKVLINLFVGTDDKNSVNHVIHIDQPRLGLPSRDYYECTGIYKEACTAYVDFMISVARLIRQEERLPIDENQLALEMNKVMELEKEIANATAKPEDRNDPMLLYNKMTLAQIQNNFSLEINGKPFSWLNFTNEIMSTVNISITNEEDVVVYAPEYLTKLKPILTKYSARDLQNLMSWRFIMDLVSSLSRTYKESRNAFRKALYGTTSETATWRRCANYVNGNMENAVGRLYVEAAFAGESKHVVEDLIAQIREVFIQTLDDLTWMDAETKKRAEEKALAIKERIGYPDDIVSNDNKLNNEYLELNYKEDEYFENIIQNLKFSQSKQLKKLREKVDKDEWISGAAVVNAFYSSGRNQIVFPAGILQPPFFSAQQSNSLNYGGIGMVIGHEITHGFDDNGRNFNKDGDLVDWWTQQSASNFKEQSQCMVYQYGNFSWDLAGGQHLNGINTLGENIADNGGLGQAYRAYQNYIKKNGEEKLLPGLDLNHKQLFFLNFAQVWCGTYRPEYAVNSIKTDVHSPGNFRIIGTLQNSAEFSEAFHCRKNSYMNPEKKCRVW

Consider `Cc1ccc(CCCC(=O)NCCCC[C@H](NC(=O)[C@@H]2CCCCn3cc(nn3)C[C@H](NC(=O)CC[C@H](NC(=O)c3ccc(NCc4cnc5nc(N)[nH]c(=O)c5n4)cc3)C(=O)O)C(=O)N[C@H](Cc3c[nH]cn3)C(=O)N[C@H](CO)C(=O)N[C@H](Cc3c[nH]cn3)C(=O)N[C@H]([C@H](C)O)C(=O)N[C@H](C)C(=O)N2)C(=O)NCC(=O)N[C@@H](Cc2ccccc2)C(=O)N[C@@H](CCCCNC(=O)CN2CCN(CC(=O)O)CCN(CC(=O)O)CCN(CC(=O)O)CC2)C(=O)O)cc1` (177Lu complex, metal not drawn) [Lu177-#6305] ({Pteroyl-γGlu}-[Pra][dH][dS][dH][dT][dA][Lys(N3)]K(Butanoyl(4-(4-MePh)))GFK(DOTA)-OH; triazole 1-7), for which the body weight change entry was “No significant body weight change” in the data set on OVCAR3 xenograft [1] (9.25 MBq and 14.8 MBq, single dose); “substantial body weight decrease” with OVCAR3 xenograft [3] (29.6 MBq). Further, the results for the tumor response entry with OVCAR3 xenograft [1] (9.25 MBq) and with OVCAR3 xenograft [1] (14.8 MBq) were “nonresponse” and “partial response”, respectively. Besides, the body weight lost in the data set with OVCAR3 xenograft [1] (29.6 MBq group, 7 days after injection) was 20%. Moreover, the kidney radioactivity in data set [2] (9.25 MBq group) stood at 414 CPM/g; in data set [2] (14.8 MBq group), 653 CPM/g. For the same compound, the liver radioactivity in data set [2] (9.25 MBq group) is recorded as 685 CPM/g; in data set [2] (14.8 MBq group), 1,264 CPM/g. Moreover, the tumor radioactivity in data set [2] (9.25 MBq group) is on record as 33 CPM/g; in data set [2] (14.8 MBq group), 60 CPM/g. The results for the liver/kidney ratio in data set [2] (14.8 MBq group on Day 28) and in data set [2] (29.6 MBq group on Day 7) were 1.94 and 0.27, respectively. In data set [2] (setting [7]), the “radioactivity in the kidney” value is 394,834 CPM/g. In data set [2] (setting [7]), the “radioactivity in the liver” value is 107,374 CPM/g. Further, in data set [2] (setting [7]), the “radioactivity in the tumor” value is on record as 42,674 CPM/g. Besides, the OVCAR3 tumor growth result with OVCAR3 xenograft [3] (14.8 MBq) is listed as “significantly slowed down OVCAR3 tumor growth”. Moreover, the “tolerability of second dose” value in data set [4] (14.8-22.2 MBq, second dose administered 21 days) was “not tolerated”; in data set [4] (29.6-185 MBq, second dose 7 days after the first) it was “not tolerated”. The body weight entry was “began to experience weight loss after the first dose” in data set [4] (29.6 MBq, 37 MBq, 111 MBq, and 185 MBq, first dose); “only minimal loss in body weight that quickly stabilized” in data set [4] (single dose of 14.8 MBq, 18.5 MBq, and 22.2 MBq).

Turning to `Cc1ccc(CCCC(=O)NCCCC[C@H](NC(=O)[C@@H]2CCCCn3cc(nn3)C[C@H](NC(=O)CC[C@H](NC(=O)c3ccc(NCc4cnc5nc(N)[nH]c(=O)c5n4)cc3)C(=O)O)C(=O)N[C@H](Cc3c[nH]cn3)C(=O)N[C@H](CO)C(=O)N[C@H](Cc3c[nH]cn3)C(=O)N[C@H]([C@H](C)O)C(=O)N[C@H](C)C(=O)N2)C(=O)NCC(=O)N[C@@H](Cc2ccccc2)C(=O)N[C@@H](CCCCNC(=O)COCCOCCOCCNC(=O)CN2CCN(CC(=O)O)CCN(CC(=O)O)CCN(CC(=O)O)CC2)C(=O)O)cc1` [compound 3302, Fol-hshta-Lys(4-MPBA)-Gly-Phe-Lys(PEG3-DOTA)] ({Pteroyl-γGlu}-[Pra][dH][dS][dH][dT][dA][Lys(N3)]K(Butanoyl(4-(4-MePh)))GFK([AEEEA-DOTA])-OH; triazole 1-7), the recovery in data set [5] (setting [8]) stood at 88.1%; in data set [6] (setting [9]) it was 103%. The fraction unbound in data set [5] (human, plasma) was 0.051; in data set [6], 0.035. Besides, the “in vitro Assay Data (NEP assay)” value at human recombinant NEP (Table 2) is given as “Cleavage of -G-F-K-”.

`C[C@H](O)[C@H]1NC(=O)[C@@H](Cc2cnc[nH]2)NC(=O)[C@@H](CO)NC(=O)[C@@H](Cc2cnc[nH]2)NC(=O)[C@@H](NC(=O)CC[C@H](NC(=O)c2ccc(NCc3cnc4nc(N)[nH]c(=O)c4n3)cc2)C(=O)O)Cc2cn(nn2)CCCC[C@@H](C(=O)NCC(=O)N[C@@H](Cc2ccccc2)C(=O)N[C@@H](CCCCNC(=O)CON)C(=O)O)NC(=O)[C@@H](C)NC1=O` [compound 3303, Fol-hshta-Gly-Phe-Lys(AO)] ({Pteroyl-γGlu}-[Pra][dH][dS][dH][dT][dA][Lys(N3)]GFK(X1)-OH; triazole 1-7): the fraction unbound at 4 h, 2 μM in data set [5] (human, plasma, AO-containing constructs, (FB), read-out: Plasma % Bound, Hu) is 0.19; in data set [6] (CD-1, mouse, plasma, AO-containing constructs, (FB), read-out: Plasma % Bound, Mu), 0.245. Besides, the recovery at 4 h, 2 μM in data set [5] (human, plasma, AO-containing constructs, (FB), read-out: Plasma protein binding % Recovery, Hu) turned out to be 80.6%; in data set [6] (CD-1, mouse, plasma, AO-containing constructs, (FB), read-out: Plasma protein binding % Recovery, Mu), 77.7%. For the same compound, the “in vitro Assay Data (NEP assay)” value at human recombinant NEP (Table 7, AO-containing constructs) is on record as “Cleavage of —G—F—K-”.

On to `C[C@H](O)[C@H]1NC(=O)[C@@H](Cc2c[nH]cn2)NC(=O)[C@@H](CO)NC(=O)[C@@H](Cc2c[nH]cn2)NC(=O)[C@@H](NC(=O)CC[C@H](NC(=O)c2ccc(NCc3cnc4nc(N)[nH]c(=O)c4n3)cc2)C(=O)O)Cc2cn(nn2)CCCC[C@@H](C(=O)NCCOCCOCCOCC(=O)NCC(=O)N[C@@H](Cc2ccccc2)C(=O)N[C@@H](CCCCNC(=O)CN2CCN(CC(=O)O)CCN(CC(=O)O)CCN(CC(=O)O)CC2)C(=O)O)NC(=O)[C@@H](C)NC1=O` [compound 6307, Fol-hshta-PEG3-Gly-Phe-Lys(DOTA)] ({Pteroyl-γGlu}-[Pra][dH][dS][dH][dT][dA][Lys(N3)][AEEEA]GFK(DOTA)-OH; triazole 1-7), for which the recovery came out at 81.6% in data set [5] (setting [8]) and 68.9% in data set [6] (setting [9]). Moreover, the fraction unbound in data set [5] (human, plasma) is 0.587; in data set [6] it was 0.594. The “in vitro Assay Data (NEP assay)” value at human recombinant NEP (Table 2) is recorded as “Cleavage of -G-F-K-”.

These data come from patent publication US11766414B2, “Compositions, delivery systems, and methods useful in tumor therapy” (Indi Molecular, Inc., priority 2020, dated 2023).
